# Source: patent US20150182581A1 (COUNCIL OF SCIENTIFIC AND INDUSTRIAL RESEARCH, published 2015)
# B1: Peptide-5 (peptide)
# peptide: PVRPQVPLRP
# B2: Peptide-1 (peptide)
# peptide: TPGPGVRYP
# B3: Peptide-4 (peptide)
# peptide: LHGMEDPE
# B4: Peptide-2 (peptide)
# peptide: GENNCLLH
# B5: Peptide-3 (peptide)
# peptide: DEVGEANN
# Biological target: ASK-1 + Nef (Nef and ASK1g co-transfected in ATCC CRL-1573 cells) (HIV-1; human, UniProt Q99683 1-1050)
# Assay: cell-based or functional assay
# ASK-1 + Nef (Nef and ASK1g co-transfected in ATCC CRL-1573 cells), sequence (Q99683 1-1050): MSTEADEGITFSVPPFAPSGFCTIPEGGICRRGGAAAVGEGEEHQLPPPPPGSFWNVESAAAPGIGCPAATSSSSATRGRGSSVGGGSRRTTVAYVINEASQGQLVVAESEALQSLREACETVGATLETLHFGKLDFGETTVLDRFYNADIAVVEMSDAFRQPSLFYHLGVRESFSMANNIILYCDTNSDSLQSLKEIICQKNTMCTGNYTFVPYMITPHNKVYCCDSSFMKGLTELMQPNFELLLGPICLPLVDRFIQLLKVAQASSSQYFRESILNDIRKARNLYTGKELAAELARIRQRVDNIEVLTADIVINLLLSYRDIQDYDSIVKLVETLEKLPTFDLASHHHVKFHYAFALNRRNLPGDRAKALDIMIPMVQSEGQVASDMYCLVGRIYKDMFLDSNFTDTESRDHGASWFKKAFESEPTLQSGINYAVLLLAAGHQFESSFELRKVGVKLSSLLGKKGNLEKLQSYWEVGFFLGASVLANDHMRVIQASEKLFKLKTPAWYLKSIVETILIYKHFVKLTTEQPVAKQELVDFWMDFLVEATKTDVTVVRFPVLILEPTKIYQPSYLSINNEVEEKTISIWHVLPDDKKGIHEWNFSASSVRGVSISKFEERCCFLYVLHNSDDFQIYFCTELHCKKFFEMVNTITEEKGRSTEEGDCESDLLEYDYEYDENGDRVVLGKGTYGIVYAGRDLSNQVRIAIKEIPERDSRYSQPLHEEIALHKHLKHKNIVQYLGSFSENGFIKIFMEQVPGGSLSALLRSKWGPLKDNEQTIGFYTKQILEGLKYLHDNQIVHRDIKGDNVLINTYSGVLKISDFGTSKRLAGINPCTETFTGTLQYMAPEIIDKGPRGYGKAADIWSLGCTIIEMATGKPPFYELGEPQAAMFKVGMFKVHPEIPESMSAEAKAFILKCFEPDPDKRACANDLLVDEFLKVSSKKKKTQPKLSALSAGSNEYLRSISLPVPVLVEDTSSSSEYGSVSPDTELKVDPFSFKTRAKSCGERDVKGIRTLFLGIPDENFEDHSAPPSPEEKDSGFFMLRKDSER
row,Binder,% of Annexin V cells means apoptotic cells
1,B1,22.4%
2,B2,22.4%
3,B3,23%
4,B4,25%
5,B5,40.4%
